Patent US9176064B2, “Bisubstrate fluorescent probes for protein kinase CK2” (University of Tartu, priority 2012, dated 2015)
Where a SMILES comes first, the peptide text is derived from it. [ ]: non-standard residue; d: D form. The star is where a group is joined. X1 = O=C(CCCCCCCn1cnc2c(Br)c(Br)c(Br)c(Br)c21)*

Legend:
Assay in all cases: Kinase panel residual activity
Format in all cases: biochemical
Conditions in all cases: compound at 1 micromolar
Src = Src (Homo sapiens, UniProt P12931)
PDGFRA = PDGFRA (Homo sapiens, UniProt P16234)
DAPK1 = DAPK1 (Homo sapiens, UniProt P53355)
PAK6 = PAK6 (Homo sapiens, UniProt Q9NQU5)
RSK1 = RSK1 (Homo sapiens, UniProt Q15418)
TTBK1 = TTBK1 (Homo sapiens, UniProt Q5TCY1)
CSK = CSK (Homo sapiens, UniProt P41240)
ERK2 = ERK2 (Homo sapiens, UniProt P28482)
PKA = PKA (Homo sapiens, UniProt P17612)
YES1 = YES1 (Homo sapiens, UniProt P07947)
TLK1 = molecular target: T1, TLK1 (Homo sapiens, UniProt Q9UKI8)
T1 sequence (Q9UKI8 1-766): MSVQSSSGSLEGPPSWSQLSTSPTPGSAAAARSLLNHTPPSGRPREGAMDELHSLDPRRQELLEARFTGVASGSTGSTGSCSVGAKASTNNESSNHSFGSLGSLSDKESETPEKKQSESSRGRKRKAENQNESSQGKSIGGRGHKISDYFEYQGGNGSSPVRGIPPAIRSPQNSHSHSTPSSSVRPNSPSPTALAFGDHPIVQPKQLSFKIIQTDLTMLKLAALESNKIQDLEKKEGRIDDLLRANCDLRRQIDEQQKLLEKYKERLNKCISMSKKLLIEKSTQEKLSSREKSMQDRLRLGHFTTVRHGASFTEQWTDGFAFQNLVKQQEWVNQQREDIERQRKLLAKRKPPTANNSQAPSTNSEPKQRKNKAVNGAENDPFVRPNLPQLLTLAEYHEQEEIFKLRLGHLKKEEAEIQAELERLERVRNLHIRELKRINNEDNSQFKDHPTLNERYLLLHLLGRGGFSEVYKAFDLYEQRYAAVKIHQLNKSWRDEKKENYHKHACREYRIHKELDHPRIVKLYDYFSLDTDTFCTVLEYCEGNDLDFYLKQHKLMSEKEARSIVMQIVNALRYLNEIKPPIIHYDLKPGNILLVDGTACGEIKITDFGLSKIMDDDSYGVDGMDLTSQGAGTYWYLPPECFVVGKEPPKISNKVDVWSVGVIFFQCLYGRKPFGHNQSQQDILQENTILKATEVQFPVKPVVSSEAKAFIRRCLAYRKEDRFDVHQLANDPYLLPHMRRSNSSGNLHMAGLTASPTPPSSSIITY

ULK1 = molecular target: T2, ULK1 (Homo sapiens, UniProt O75385)
T2 sequence (O75385 1-1050): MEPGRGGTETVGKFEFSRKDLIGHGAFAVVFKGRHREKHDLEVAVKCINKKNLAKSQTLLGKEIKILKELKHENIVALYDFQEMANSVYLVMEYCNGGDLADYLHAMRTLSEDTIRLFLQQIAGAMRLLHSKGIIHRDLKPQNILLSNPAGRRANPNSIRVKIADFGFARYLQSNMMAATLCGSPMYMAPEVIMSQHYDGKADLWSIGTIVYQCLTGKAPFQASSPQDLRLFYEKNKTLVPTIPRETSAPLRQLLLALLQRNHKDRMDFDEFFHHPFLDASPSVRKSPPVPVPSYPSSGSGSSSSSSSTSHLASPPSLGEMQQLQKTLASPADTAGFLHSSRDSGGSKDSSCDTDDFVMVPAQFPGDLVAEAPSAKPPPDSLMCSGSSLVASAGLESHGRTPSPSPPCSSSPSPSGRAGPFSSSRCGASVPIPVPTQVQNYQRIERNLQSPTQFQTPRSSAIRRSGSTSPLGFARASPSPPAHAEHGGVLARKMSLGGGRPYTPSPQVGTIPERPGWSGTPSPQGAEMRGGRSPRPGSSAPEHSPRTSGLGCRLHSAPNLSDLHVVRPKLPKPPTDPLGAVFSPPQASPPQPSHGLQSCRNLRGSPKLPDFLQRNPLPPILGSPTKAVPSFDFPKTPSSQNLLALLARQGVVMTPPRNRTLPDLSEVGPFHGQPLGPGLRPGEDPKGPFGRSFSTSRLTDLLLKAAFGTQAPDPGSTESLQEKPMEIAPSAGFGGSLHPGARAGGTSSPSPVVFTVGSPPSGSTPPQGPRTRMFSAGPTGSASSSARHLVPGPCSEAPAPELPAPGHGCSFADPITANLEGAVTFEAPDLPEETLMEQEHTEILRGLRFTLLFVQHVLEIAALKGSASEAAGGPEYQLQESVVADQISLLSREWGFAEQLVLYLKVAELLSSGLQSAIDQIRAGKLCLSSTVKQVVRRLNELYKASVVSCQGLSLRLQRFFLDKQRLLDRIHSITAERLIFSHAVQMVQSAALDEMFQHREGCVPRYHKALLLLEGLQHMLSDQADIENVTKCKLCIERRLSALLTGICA

BRK = BRK (Homo sapiens, UniProt Q13882)
SGK1 = molecular target: T3, SGK1 (Homo sapiens, UniProt O00141)
T3 sequence (O00141 1-431): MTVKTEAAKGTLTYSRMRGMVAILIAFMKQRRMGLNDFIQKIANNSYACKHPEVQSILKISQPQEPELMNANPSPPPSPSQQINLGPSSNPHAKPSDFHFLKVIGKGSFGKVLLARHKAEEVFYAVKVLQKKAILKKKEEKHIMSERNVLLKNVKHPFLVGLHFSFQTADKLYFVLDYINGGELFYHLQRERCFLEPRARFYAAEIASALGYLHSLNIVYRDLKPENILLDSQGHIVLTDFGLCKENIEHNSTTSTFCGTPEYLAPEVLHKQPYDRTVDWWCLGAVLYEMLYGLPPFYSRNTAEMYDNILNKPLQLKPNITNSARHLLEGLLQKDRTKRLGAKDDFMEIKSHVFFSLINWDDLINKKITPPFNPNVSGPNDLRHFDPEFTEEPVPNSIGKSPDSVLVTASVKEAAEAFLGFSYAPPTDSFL

Chain of CSK (P41240 whole entry, species assumed): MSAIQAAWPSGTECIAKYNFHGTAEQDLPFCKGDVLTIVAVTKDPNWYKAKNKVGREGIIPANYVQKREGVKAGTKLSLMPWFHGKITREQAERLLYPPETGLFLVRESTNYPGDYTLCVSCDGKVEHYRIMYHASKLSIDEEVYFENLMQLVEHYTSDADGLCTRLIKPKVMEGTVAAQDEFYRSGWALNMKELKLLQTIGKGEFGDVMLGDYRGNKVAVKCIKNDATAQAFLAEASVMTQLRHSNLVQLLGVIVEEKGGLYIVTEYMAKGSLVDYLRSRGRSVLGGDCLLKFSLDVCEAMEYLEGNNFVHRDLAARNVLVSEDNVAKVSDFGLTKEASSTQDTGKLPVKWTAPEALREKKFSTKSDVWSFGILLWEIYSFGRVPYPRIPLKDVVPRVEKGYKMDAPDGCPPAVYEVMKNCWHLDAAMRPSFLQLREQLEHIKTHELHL
Chain of RSK1 (Q15418 whole entry, species assumed): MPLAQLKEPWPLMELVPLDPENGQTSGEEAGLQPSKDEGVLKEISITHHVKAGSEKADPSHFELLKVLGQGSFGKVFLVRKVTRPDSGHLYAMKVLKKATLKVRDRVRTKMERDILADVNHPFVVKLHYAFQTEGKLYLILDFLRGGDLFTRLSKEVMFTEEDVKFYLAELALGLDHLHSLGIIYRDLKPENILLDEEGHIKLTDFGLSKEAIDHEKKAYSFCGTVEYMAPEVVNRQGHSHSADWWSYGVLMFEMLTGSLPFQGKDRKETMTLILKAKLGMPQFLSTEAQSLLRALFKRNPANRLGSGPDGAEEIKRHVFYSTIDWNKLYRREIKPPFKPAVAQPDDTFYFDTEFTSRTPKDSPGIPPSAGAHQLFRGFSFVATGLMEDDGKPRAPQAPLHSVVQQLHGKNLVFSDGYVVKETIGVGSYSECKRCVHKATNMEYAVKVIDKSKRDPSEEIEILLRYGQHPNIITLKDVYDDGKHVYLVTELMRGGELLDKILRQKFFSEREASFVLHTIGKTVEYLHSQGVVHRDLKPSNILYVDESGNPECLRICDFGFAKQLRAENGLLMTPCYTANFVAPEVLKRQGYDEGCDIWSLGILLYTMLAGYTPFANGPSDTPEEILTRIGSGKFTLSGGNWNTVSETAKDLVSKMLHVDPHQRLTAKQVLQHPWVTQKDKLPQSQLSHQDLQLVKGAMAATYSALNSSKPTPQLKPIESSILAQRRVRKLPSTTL
Chain of DAPK1 (P53355 whole entry, species assumed): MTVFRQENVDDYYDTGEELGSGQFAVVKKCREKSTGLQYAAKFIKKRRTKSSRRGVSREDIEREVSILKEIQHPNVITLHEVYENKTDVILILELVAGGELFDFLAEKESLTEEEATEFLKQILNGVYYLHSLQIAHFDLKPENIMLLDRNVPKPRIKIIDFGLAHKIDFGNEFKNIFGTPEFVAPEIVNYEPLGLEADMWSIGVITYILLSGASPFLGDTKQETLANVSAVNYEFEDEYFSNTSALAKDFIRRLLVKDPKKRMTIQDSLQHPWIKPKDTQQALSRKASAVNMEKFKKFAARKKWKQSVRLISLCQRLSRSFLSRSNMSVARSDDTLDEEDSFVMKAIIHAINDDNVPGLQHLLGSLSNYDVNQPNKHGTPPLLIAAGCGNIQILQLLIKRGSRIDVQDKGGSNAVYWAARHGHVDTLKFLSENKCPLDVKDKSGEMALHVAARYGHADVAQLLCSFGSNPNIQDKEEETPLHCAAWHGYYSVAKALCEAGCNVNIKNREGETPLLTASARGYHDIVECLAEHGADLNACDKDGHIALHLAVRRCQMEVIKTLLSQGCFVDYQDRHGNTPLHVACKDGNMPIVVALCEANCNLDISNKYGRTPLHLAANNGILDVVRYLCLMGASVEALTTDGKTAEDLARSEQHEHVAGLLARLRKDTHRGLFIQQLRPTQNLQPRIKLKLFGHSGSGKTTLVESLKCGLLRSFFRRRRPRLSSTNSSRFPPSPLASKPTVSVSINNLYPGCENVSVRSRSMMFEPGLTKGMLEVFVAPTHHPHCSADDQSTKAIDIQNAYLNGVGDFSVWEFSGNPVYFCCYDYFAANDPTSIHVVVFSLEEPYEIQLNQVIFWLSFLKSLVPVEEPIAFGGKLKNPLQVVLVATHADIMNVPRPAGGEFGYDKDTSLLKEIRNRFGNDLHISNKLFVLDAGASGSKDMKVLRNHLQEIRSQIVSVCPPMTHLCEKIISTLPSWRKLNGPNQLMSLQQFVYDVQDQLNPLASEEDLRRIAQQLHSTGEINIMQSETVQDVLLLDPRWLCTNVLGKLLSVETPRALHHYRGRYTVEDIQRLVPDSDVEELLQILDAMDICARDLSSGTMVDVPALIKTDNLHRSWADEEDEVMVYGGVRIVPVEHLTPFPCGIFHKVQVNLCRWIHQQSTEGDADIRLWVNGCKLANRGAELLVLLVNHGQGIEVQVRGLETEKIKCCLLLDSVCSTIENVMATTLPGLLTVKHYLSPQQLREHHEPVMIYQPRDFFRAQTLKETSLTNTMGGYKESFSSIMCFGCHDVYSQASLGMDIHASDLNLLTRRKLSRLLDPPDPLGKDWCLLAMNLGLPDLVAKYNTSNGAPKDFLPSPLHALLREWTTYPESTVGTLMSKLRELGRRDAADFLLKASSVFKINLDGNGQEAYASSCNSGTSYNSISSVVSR
Chain of ERK2 (P28482 whole entry, species assumed): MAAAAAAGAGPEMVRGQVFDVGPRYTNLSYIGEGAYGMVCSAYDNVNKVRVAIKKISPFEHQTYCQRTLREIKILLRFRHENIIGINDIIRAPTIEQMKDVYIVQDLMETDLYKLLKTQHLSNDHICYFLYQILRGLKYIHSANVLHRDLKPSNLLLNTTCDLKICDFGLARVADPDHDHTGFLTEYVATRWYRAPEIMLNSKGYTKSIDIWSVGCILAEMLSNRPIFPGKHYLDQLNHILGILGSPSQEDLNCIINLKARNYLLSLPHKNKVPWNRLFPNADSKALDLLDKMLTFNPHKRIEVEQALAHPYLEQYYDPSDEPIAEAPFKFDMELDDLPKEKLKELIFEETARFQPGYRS
Chain of TTBK1 (Q5TCY1 whole entry, species assumed): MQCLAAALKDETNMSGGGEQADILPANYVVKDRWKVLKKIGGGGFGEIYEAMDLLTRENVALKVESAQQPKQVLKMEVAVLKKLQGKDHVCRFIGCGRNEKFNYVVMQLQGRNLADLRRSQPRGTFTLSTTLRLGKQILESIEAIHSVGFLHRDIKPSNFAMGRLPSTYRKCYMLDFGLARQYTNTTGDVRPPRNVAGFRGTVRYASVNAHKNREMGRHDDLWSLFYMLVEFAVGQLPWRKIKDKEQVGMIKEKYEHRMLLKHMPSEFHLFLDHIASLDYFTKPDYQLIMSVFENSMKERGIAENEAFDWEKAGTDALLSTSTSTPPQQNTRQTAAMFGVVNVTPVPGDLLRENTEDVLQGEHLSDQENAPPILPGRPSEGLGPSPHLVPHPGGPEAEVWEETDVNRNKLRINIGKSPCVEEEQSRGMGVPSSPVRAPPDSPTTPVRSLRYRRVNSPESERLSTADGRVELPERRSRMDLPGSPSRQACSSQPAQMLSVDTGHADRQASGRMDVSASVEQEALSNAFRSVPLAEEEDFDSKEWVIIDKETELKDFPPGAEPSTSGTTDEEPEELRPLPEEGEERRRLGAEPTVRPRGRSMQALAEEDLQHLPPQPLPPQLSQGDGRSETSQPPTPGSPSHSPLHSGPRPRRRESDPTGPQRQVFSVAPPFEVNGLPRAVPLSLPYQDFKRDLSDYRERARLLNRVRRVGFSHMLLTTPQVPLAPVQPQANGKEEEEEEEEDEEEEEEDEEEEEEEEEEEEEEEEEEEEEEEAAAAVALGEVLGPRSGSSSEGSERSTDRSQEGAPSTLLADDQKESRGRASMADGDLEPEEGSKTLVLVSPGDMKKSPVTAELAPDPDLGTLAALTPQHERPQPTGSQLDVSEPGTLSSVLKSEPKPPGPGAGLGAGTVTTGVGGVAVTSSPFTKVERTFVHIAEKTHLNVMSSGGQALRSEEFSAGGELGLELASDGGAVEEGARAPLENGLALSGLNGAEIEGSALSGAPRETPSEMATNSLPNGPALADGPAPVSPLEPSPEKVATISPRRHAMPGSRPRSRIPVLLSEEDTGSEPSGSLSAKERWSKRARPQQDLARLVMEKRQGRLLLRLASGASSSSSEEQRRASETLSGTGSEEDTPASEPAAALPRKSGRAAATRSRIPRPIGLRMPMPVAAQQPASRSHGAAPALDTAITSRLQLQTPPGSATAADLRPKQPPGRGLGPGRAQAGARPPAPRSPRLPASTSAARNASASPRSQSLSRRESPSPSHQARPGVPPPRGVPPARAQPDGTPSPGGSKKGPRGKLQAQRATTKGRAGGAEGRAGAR
Chain of PAK6 (Q9NQU5 whole entry, species assumed): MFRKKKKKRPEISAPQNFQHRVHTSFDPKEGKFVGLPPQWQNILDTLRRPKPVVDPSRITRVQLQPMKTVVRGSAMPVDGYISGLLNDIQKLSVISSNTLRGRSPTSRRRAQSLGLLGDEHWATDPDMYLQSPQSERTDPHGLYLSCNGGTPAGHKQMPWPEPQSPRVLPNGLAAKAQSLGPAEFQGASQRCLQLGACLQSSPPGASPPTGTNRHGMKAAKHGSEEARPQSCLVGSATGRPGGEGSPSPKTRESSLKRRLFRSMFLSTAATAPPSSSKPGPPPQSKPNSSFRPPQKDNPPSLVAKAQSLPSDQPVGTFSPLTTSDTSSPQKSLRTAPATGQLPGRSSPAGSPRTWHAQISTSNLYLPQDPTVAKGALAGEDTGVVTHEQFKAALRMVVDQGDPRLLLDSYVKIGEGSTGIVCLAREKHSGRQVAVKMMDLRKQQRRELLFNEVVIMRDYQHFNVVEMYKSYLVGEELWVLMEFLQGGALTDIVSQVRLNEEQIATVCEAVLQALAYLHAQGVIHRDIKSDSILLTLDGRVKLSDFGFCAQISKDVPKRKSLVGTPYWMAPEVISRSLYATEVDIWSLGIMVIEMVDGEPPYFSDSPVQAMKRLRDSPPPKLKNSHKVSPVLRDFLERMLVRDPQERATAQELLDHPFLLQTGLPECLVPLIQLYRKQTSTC

For NCCCC[C@H](NC(=O)[C@H](CC(=O)O)NC(=O)[C@H](CC(=O)O)NC(=O)[C@H](CC(=O)O)NC(=O)[C@H](CC(=O)O)NC(=O)[C@H](CC(=O)O)NC(=O)[C@@H](CC(=O)O)NC(=O)CCCCCCCn1cnc2c(Br)c(Br)c(Br)c(Br)c21)C(=O)O [TBBI-OcA-(D-Asp)-(L-Asp)5-(L-Lys)-OH] (X1-[dD]DDDDDK-OH), the remaining activity at 1 µM (Src) was 57%, the remaining activity at 1 µM (PDGFRA) was 77% and the remaining activity at 1 µM (DAPK1) was 84%. It also gave a remaining activity at 1 µM (PAK6) of 86%, a remaining activity at 1 µM (RSK1) of 88% and a remaining activity at 1 µM (TTBK1) of 90%. The remaining activity at 1 µM (CSK) was 92%, the remaining activity at 1 µM (ERK2) was 92% and the remaining activity at 1 µM (PKA) was 100%. For the same compound, the remaining activity at 1 µM (YES1) was 103%, the remaining activity at 1 µM (TLK1) was 107% and the remaining activity at 1 µM (ULK1) was 111%. It also gave a remaining activity at 1 µM (BRK) of 113% and a remaining activity at 1 µM (SGK1) of 127%.
